5 variants from IntAct's records for PubMed 21621563 can be followed below.

The chains are these.
B1: Forkhead box protein O3 (Homo sapiens), O43524 (parent)
chain: MAEAPASPAPLSPLEVELDPEFEPQSRPRSCTWPLQRPELQASPAKPSGETAADSMIPEEEDDEDDEDGGGRAGSAMAIGGGGGSGTLGSGLLLEDSARVLAPGGQDPGSGPATAAGGLSGGTQALLQPQQPLPPPQPGAAGGSGQPRKCSSRRNAWGNLSYADLITRAIESSPDKRLTLSQIYEWMVRCVPYFKDKGDSNSSAGWKNSIRHNLSLHSRFMRVQNEGTGKSSWWIINPDGGKSGKAPRRRAVSMDNSNKYTKSRGRAAKKKAALQTAPESADDSPSQLSKWPGSPTSRSSDELDAWTDFRSRTNSNASTVSGRLSPIMASTELDEVQDDDAPLSPMLYSSSASLSPSVSKPCTVELPRLTDMAGTMNLNDGLTENLMDDLLDNITLPPSQPSPTGGLMQRSSSFPYTTKGSGLGSPTSSFNSTVFGPSSLNSLRQSPMQTIQENKPATFSSMSHYGNQTLQDLLTSDSLSHSDVMMTQSDPLMSQASTAVSAQNSRRNVMLRNDPMMSFAAQPNQGSLVNQNLLHHQHQTQGALGGSRALSNSVSNMGLSESSSLGSAKHQQQSPVSQSMQTLSDSLSGSSLYSTSANLPVMGHEKFPSDLDLDMFNGSLECDMESIIRSELMDADGLDFNFDSLISTQNVVGLNVGNFTGAKQASSQSWVPG

In assay [1] the parent is B1. The settings on record: with 1433z_mouse Ywhaz.
The variants in the assay “akt1_human AKT1, P31749” derive from B1. The settings on record: with akt1_human AKT1, P31749.
akt1_human AKT1, P31749, sequence (P31749 whole entry): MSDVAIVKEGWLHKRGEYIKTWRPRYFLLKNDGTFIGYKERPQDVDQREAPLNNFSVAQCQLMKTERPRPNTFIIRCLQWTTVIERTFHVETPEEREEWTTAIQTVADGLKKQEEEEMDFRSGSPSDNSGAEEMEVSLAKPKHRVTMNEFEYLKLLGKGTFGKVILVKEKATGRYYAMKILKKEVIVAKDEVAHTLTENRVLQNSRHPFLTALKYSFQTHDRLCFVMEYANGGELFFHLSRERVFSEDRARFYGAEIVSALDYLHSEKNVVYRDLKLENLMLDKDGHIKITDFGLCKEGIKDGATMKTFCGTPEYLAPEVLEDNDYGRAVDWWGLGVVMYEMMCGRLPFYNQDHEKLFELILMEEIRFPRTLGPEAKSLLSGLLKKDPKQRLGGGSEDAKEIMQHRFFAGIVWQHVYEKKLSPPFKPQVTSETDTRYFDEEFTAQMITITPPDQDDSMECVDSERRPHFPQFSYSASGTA

As for R27L;R29L;R248L;R250L;R310L;R312L, the “effect of a mutation on the interaction” value was “disrupting interaction strength” in assay [1] and “decreasing interaction strength” with akt1_human AKT1, P31749.
The corresponding values for R27L;R29L are “disrupting interaction strength” and “with no effect”.
The like results for P34A were, in that order, “decreasing interaction strength” and “with no effect”.
For the variant T32A;S253A;S315A, the “effect of a mutation on the interaction” value in assay [1] was “disrupting interaction strength”; with akt1_human AKT1, P31749, “decreasing interaction strength”.
The like results for R27L;R29L;R248L;R250L were, in that order, “disrupting interaction strength” and “decreasing interaction strength”.
